Results from the supplement of paper PMC10065799, “High-throughput profiling of sequence recognition by tyrosine kinases and SH2 domains using bacterial peptide display” (eLife, 2023).

Legend:
[1] = target: c-Src SH2; assay: SH2 binding enrichment of the phosphorylated peptide, bacterial display (enrichment ratio); higher = better substrate or ligand; peptides without Tyr show the background
[2] = target: SHP2-C SH2; assay: as above
[3] = target: Grb2 SH2 (UniProt P62993); assay: as above
[4] = target: Fyn (UniProt P06241); assay: phosphorylation enrichment, bacterial display (enrichment ratio); higher = better substrate or ligand; peptides without Tyr show the background
[5] = target: MERTK (UniProt Q12866); assay: as above
[6] = target: Jak2 (UniProt O60674); assay: as above
[7] = test system: c-Src; assay: as above
[8] = target: EPHB1 (UniProt P54762); assay: as above
[9] = test system: c-Abl (mouse); assay: as above
[10] = target: Hck (UniProt P08631); assay: as above
[11] = target: FGFR3 (UniProt P22607); assay: as above
[12] = target: EPHB2 (UniProt P29323); assay: as above
[13] = target: FGFR1 (UniProt P11362); assay: as above
[14] = test system: AncSZ; assay: as above
[15] = test system: Fer (mouse); assay: as above
[16] = target: Fes (UniProt P07332); assay: as above
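Throughout, for SH2 binding enrichment of the phosphorylated peptide, bacterial display: peptide library displayed on the E. coli surface as eCPX fusions, selected cells deep-sequenced, score is each peptide's frequency after selection divided by its frequency in the input.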
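Throughout, for phosphorylation enrichment, bacterial display: 11-residue human phosphosite peptides and single-mutation variants displayed on the E. coli surface, counted by deep sequencing, each peptide's frequency after selection divided by its frequency in the unselected input library; frequency after pTyr selection over input frequency; kinase dosed for 20-30% of maximal phosphorylation in three min.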

FGFR1, sequence (P11362 whole entry, looked up): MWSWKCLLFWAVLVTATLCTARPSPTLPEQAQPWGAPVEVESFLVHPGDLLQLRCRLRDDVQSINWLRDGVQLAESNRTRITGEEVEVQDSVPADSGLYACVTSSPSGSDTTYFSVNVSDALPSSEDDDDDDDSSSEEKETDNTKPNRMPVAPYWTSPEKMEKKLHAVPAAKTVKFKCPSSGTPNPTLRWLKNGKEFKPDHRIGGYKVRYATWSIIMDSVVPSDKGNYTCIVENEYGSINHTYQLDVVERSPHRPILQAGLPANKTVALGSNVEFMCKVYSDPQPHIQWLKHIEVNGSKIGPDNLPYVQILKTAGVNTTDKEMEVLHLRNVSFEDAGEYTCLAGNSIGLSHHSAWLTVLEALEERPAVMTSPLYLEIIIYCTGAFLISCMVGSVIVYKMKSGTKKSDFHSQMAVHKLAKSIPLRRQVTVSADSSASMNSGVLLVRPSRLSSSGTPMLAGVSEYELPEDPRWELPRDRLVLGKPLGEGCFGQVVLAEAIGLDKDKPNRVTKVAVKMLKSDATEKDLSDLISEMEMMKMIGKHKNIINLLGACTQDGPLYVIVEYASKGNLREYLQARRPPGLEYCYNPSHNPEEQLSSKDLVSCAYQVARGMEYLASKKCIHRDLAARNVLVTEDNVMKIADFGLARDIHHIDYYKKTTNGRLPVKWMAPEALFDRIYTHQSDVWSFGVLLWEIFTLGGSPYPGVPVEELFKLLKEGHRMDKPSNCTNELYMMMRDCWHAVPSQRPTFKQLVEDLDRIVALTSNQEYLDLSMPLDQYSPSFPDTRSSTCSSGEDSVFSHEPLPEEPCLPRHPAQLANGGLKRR
Fes, sequence (P07332 whole entry, looked up, the tested form may be a part): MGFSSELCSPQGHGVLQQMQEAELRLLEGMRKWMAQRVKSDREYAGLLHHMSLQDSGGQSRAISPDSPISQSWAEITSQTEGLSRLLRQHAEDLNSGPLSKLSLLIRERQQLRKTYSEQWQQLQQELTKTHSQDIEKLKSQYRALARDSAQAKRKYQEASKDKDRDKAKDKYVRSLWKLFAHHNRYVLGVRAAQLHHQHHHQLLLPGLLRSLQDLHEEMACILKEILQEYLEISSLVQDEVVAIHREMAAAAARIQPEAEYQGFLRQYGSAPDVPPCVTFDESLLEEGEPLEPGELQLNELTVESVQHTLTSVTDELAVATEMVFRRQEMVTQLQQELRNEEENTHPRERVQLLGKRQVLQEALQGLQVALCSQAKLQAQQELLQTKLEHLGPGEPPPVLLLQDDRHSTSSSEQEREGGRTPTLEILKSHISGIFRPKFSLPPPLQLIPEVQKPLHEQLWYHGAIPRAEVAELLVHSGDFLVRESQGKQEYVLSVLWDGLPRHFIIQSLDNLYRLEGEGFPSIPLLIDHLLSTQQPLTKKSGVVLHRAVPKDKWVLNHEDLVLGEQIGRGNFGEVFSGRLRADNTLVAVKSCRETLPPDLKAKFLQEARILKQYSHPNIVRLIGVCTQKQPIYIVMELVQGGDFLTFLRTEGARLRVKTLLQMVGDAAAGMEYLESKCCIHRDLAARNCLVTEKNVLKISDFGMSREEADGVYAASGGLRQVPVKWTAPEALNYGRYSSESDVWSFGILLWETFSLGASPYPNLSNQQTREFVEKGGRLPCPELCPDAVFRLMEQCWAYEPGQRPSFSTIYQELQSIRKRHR
FGFR3, sequence (P22607 whole entry, looked up): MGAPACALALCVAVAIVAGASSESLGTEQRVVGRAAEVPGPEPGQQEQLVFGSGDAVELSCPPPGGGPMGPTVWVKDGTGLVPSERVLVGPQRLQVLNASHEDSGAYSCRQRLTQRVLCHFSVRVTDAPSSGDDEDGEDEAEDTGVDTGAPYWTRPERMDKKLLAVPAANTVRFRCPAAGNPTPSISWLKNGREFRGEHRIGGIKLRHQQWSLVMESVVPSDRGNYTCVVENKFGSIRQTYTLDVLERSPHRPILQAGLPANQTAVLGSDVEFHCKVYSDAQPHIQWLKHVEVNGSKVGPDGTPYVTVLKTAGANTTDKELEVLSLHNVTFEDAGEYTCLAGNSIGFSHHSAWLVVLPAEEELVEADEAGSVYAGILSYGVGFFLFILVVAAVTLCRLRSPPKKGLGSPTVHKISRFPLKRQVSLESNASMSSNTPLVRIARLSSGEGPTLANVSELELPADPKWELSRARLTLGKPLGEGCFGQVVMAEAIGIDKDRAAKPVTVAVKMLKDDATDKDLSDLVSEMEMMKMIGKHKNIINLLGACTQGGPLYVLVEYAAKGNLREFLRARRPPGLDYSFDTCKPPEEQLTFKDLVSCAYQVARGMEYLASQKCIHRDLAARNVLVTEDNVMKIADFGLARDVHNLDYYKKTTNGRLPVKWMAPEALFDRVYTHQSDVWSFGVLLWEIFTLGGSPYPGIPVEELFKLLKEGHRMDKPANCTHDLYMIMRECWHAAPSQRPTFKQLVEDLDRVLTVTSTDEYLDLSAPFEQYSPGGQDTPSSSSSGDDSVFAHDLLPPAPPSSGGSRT
EPHB1, sequence (P54762 whole entry, looked up): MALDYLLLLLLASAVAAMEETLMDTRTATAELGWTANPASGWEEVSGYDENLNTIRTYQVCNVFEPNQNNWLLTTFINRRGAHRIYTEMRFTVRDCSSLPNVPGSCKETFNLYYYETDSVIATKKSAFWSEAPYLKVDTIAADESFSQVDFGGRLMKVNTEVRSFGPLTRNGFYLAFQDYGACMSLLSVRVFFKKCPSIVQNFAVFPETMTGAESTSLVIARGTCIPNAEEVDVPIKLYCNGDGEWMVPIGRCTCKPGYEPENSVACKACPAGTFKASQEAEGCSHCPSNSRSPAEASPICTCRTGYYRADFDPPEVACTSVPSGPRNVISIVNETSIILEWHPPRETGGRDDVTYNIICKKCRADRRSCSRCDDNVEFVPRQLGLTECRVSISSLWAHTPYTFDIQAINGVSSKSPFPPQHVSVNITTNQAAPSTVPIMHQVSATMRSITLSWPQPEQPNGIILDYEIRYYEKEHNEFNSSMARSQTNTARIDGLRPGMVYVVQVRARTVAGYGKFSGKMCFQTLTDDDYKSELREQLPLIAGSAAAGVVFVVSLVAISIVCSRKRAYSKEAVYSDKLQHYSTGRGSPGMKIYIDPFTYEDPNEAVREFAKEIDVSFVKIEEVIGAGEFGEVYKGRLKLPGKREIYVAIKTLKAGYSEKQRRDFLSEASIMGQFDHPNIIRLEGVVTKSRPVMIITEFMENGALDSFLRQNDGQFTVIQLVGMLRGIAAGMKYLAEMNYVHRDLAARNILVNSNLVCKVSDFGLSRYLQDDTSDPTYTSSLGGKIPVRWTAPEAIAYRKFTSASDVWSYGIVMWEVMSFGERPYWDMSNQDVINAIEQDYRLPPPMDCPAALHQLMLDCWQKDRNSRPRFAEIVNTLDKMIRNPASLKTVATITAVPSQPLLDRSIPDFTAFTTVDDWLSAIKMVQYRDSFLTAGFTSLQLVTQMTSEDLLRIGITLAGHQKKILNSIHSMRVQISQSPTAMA
Jak2, sequence (O60674 whole entry, looked up): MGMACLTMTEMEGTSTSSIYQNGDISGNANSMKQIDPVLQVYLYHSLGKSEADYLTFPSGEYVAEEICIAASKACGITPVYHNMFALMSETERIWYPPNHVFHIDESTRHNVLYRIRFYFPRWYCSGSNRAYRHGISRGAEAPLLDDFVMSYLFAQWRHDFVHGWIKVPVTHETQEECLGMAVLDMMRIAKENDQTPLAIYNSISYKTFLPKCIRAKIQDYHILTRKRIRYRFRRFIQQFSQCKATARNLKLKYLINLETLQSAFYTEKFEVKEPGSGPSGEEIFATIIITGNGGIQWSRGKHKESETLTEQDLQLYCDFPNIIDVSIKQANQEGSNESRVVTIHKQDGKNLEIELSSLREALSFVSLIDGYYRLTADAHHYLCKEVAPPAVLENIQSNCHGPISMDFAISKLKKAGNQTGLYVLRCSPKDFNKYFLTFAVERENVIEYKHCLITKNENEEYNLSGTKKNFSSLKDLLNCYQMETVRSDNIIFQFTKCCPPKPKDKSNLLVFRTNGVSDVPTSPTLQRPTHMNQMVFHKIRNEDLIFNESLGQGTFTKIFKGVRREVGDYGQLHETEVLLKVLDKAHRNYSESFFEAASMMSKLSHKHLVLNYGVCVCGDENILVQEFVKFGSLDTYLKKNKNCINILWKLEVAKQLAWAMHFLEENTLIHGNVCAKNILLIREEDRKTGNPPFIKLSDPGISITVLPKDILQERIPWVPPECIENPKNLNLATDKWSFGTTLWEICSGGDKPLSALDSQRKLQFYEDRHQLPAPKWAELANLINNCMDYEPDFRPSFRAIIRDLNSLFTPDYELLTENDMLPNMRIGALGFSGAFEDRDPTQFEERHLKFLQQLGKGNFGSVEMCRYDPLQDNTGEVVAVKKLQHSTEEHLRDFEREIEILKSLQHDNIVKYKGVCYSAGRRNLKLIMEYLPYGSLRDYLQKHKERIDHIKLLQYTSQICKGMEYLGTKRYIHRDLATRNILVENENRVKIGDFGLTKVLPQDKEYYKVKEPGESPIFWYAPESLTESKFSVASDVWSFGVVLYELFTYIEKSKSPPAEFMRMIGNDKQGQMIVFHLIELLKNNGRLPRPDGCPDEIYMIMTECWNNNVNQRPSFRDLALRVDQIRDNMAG
Hck, sequence (P08631 whole entry, looked up): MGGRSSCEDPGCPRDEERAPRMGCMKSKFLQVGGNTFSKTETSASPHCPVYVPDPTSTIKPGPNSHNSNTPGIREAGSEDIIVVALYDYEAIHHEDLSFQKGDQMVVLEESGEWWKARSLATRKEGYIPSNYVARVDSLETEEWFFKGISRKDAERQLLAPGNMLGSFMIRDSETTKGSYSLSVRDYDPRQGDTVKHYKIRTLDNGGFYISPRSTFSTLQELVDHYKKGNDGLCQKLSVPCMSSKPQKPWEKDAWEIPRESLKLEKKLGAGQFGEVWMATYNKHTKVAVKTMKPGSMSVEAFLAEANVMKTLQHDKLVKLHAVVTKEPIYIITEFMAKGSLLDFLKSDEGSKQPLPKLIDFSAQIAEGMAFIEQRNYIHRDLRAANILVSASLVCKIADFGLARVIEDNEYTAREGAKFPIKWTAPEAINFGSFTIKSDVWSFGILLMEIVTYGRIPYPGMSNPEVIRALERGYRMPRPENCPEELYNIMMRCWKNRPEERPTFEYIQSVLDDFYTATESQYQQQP

Sequence	SH2 binding enrichment [1]	SH2 binding enrichment [2]	SH2 binding enrichment [3]	phosphorylation enrichment [4]	phosphorylation enrichment [5]	phosphorylation enrichment [6]	phosphorylation enrichment [7]	phosphorylation enrichment [8]	phosphorylation enrichment [9]	phosphorylation enrichment [10]	phosphorylation enrichment [11]	phosphorylation enrichment [12]	phosphorylation enrichment [13]	phosphorylation enrichment [14]	phosphorylation enrichment [15]	phosphorylation enrichment [16]
VVTGLYEKPSL [KIR3DS1_Y221]	0.859	0.461	0.722	2.3	9.59	0.623	1.05	4.21	17.3	6.03	0.537	7.7	0.456	1.36	13.2	0.66
VWALTYCDLHK [KCNH2_Y827_R823W]	0.655	0.791	0.884	0.605	0.507	1.49	1.2	1.75	0.809	0.632	0.967	0.76	0.823	1.28	0.594	1.32
VYSTDYYRVGG [NTRK2_Y706]	0.719	0.687	0.92	5.13	11	10	4.67	8.68	1.49	4.61	11.8	7.13	15.3	2.94	1.22	0.902
VYYGSYSRPYG [NKAP_Y104]	2.61	1.81	1.64	9.54	6.16	2.87	7.11	1.7	8.1	8.09	2.01	2.66	2.77	1.19	0.835	0.756
WAKPEYTGGFK	0.478	0.758	0.971	0.411	0.397	0.574	0.417	0.438	0.743	0.364	0.462	0.468	0.48	0.544	0.332	0.732

The next lines start with results.

SH2 binding enrichment [1]	SH2 binding enrichment [2]	SH2 binding enrichment [3]	Sequence	phosphorylation enrichment [4]	phosphorylation enrichment [5]	phosphorylation enrichment [6]	phosphorylation enrichment [7]	phosphorylation enrichment [8]	phosphorylation enrichment [9]	phosphorylation enrichment [10]	phosphorylation enrichment [11]	phosphorylation enrichment [12]	phosphorylation enrichment [13]	phosphorylation enrichment [14]	phosphorylation enrichment [15]	phosphorylation enrichment [16]
0.54	0.575	0.76	VVLEDYLDIKH [CLCNKB_Y138_N143H]	0.419	0.506	0.959	0.458	0.782	0.716	0.534	1.05	0.66	1.24	1.25	0.506	1.3
0.462	0.652	0.68	VVQGLYKSMRK [KBTBD2_Y250_P254R]	0.421	0.482	0.522	0.391	0.397	0.519	0.351	0.358	0.432	0.403	0.628	0.372	0.464
0.757	4.29	0.755	VYLGAYDHFLP [SLC22A5_Y486_R488H]	6.16	9.45	1.39	6.2	4.38	2.69	5.47	1.62	7.25	1.6	2.28	7.24	1.25
0.634	0.788	0.97	VYSATYHPDHW [EFCAB12_Y544_P541S]	6.37	10.3	1.05	5.17	1.06	2.06	5.4	1.18	1.13	1.33	1.02	4.14	1.24
